The record followed here is patent publication US20050124549A1 (ADMINISTRATORS OF THE TULANE EDUCATIONAL FUND, published 2005).

For assay [1], the target named is T1, human somatostatin receptor subtype 2 (human, UniProt P30874 1-369).
T1 construct: whole, on cells; also called SSTR2; SSTR-2
In words: cell-based or functional assay.

Assay [2] addresses human somatostatin receptor subtype 4 (human) (UniProt P31391). Description: radioligand displacement, CHO-K1 membranes expressing human SSTR4; competitor [125I-Tyr11]SS-14.
The target of assay [3] is T1, human somatostatin receptor subtype 2. In words: radioligand displacement, CHO-K1 membranes expressing human SSTR2; competitor [125I]MK-678. Here is the method: (§1) Specificity and selectivity of the analogues were determined by Radioligand Binding Assay on CHO-K1 cells stably transfected with each of the SSTR subtypes, as follows.
(§2) Membranes for in vitro receptor binding assays were obtained by homogenizing the CHO-K1 cells expressing the SSTR's subtypes in ice-cold 50 mM Tris-HCl and centrifuging twice at 39000 g (10 min), with an intermediate resuspension in fresh buffer. The final pellets were resuspended in 10 mM Tris-HCl for assay. […] The final assay volume was 0.3 ml. […] The incubations were terminated by rapid filtration through GF/C filters (pre-soaked in 0.3% polyethylenimine) using a Brandel filtration manifold. Each tube and filter were then washed three times with 5 ml aliquots of ice-cold buffer.
A general note: In a radioligand displacement assay an active substance lowers the binding of a labelled ligand.

Assay [4] has as its target T2, human somatostatin receptor subtype 1 (human, UniProt P30872 1-391).
T2 construct: whole, on cells; Membrane preparations of transfected CHO-K1 cells; also called SSTR1; SSTR-1
Description: radioligand displacement, CHO-K1 membranes expressing human SSTR1; competitor [125I-Tyr11]SS-14. Here is the method: as §1, §2

Assay [5] addresses T3, human somatostatin receptor subtype 3 (human, UniProt P32745 1-418).
T3 construct: whole, on cells; Membrane preparations of transfected CHO-K1 cells; also called SSTR3; SSTR-3
Description: radioligand displacement, CHO-K1 membranes expressing human SSTR3; competitor [125I-Tyr11]SS-14. The procedure:
as §1, §2

Assay [6] addresses T4, human somatostatin receptor subtype 5 (human, UniProt P35346 1-364).
T4 construct: whole, on cells; also called SSTR5; SSTR-5
In words: radioligand displacement, CHO-K1 membranes expressing human SSTR5; competitor [125I-Tyr11]SS-14. The procedure: as §1, §2

Where no end group is shown, it is not given here. [ ]: non-standard residue; d: D form.

T3 sequence (P32745 whole entry): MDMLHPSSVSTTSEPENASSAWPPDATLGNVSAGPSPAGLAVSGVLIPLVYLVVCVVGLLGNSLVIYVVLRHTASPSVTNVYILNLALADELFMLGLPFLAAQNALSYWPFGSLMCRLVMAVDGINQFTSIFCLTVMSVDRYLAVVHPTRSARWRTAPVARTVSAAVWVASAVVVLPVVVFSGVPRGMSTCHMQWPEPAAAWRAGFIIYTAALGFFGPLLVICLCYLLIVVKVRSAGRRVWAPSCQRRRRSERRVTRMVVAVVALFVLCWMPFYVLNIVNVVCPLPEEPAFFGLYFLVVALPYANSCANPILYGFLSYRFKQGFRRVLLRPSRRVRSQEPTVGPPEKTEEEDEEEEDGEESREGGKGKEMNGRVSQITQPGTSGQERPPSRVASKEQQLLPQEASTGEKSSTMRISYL
T1 sequence (P30874 whole entry): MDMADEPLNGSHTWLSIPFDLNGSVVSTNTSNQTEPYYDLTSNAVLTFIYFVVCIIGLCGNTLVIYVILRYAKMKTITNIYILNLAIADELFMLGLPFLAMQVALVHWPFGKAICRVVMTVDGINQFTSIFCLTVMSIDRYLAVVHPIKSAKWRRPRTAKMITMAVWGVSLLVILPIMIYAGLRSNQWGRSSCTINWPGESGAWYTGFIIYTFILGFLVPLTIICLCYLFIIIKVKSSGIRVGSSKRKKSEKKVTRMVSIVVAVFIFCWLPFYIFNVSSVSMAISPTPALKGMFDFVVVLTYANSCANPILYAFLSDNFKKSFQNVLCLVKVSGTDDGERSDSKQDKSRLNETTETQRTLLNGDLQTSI
T2 sequence (P30872 whole entry): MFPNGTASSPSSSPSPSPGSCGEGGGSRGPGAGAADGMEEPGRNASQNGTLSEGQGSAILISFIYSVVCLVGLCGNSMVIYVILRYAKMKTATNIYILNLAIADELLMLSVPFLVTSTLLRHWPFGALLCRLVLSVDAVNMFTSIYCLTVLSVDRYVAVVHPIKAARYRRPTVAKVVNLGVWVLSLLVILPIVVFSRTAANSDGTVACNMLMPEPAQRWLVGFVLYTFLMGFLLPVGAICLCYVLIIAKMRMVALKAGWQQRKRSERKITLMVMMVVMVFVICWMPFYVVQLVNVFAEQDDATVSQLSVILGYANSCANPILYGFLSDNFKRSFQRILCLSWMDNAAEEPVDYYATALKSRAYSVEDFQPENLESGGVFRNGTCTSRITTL
T4 sequence (P35346 whole entry): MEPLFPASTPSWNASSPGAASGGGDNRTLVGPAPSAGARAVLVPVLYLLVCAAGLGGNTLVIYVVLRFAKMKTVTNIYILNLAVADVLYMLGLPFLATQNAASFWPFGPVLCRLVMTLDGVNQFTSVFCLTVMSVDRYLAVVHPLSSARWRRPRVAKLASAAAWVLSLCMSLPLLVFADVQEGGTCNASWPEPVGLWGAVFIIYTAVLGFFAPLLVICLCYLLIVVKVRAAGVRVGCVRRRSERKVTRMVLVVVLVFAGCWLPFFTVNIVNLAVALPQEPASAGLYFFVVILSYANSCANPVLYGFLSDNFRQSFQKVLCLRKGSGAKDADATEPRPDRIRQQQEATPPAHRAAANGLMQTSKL
Sequence of human somatostatin receptor subtype 4 (human) (P31391 whole entry): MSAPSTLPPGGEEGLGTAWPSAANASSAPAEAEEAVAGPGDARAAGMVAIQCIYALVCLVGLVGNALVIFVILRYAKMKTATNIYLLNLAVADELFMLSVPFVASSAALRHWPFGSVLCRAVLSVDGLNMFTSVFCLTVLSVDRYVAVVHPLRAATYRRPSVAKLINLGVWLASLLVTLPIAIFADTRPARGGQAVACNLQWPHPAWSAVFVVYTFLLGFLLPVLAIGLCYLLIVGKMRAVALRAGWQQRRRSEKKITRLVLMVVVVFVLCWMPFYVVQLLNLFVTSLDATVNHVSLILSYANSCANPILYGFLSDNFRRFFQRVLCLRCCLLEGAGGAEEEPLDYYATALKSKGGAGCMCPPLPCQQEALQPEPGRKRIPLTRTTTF

Regarding “Compound 2: cyclo[Tic-Tyr-D-Trp-Lys-Abu-Phe] (peptide)”, the suppression of [^3H]thy incorporation in TT cells, 10^-9 to 10^-7 M in assay [1] was 23 to 58%. Also, the 50% inhibitory concentration (IC50) – broadly, the midpoint of a concentration-inhibition curve – in assay [2] came out at 1 µM; in assay [3] it was 0.00034 µM; in assay [4], 1 µM; in assay [5], 0.412 µM; in assay [6] it was 0.213 µM.
Turning to “Compound 3: 4-(2-Hydroxyethyl)-1-piperazinylacetyl-D-Phe-cyclo(Cys-Tyr-D-Trp-Lys-Abu-Cys)-Thr-NH2 (peptide)”, the change of [^3H]thy incorporation in TT cells at 10^-9 M in assay [1] is -17%. The IC50 amounted to 0.00035 µM in assay [3] and 5.21 µM in assay [4].
For “Compound 4: 4-(2-Hydroxyethyl)-1-piperazine-2-ethanesulfonyl-D-Phe-cyclo(Cys-Tyr-D-Trp-Lys-Abu-Cys)-Thr-NH2 (peptide)”, the change of [^3H]thy incorporation in TT cells at 10^-9 M in assay [1] is -13%.
On to “Compound 6: Cpa-cyclo(D-Cys-4-Pal-D-Trp-Lys-Thr-Cys)-Nal-NH2 (peptide)”, for which the concentration for half-maximal inhibition (IC50) in assay [3] turned out to be 0.0064 µM; in assay [4] it was 2.76 µM; in assay [5] it was 0.044 µM; in assay [6], 0.0865 µM.

B1: Compound 1: D-Nal-cyclo[Cys-Tyr-D-Trp-Lys-Val-Cys]-Thr-NH2 (peptide)
peptide: XCYXKVCT
modifications: not fully specified; D-Nal at position 1; D-Trp at position 4; cyclo (disulfide) Cys2-Cys7; C-terminal amide
notes: also called SSTR2 preferential agonist
Consider B1, for which the half-maximal inhibitory concentration (IC50) amounted to 0.00075 µM in assay [3], 2.13 µM in assay [4] and 0.098 µM in assay [5].

B2: Compound 5: D-Phe-Phe-Trp-D-Trp-Lys-Thr-Phe-Thr-NH2 (peptide)
peptide: [dF]FW[dW]KTFT-NH2
notes: also called SSTR5 preferential agonist; SSTR5 selective agonist
In the case of B2, the IC50 in assay [3] is 0.166 µM; in assay [4], 1.15 µM; in assay [5] it was 1 µM; in assay [6], 0.0024 µM.
